Measured values: US20110177077A1

Legend:
[1] = biological target: human PAX 5 protein (human) (UniProt Q02548); assay: IHC, Reed Sternberg cells, Hodkins lymphoma 1, antibody at 3 ug/mL
[2] = biological target: human PAX 5 protein (human) (UniProt Q02548); assay: IHC, Reed Sternberg cells, Hodkins lymphoma 2, antibody at 3 ug/mL
[3] = biological target: human PAX 5 protein (human) (UniProt Q02548); assay: IHC, Reed Sternberg cells, Hodkins lymphoma 3, antibody at 3 ug/mL
[4] = biological target: human PAX 5 protein (human) (UniProt Q02548); assay: IHC, Reed Sternberg cells, Hodkins lymphoma 4, antibody at 3 ug/mL

Sequence of UniProt Q02548 (Q02548 whole entry): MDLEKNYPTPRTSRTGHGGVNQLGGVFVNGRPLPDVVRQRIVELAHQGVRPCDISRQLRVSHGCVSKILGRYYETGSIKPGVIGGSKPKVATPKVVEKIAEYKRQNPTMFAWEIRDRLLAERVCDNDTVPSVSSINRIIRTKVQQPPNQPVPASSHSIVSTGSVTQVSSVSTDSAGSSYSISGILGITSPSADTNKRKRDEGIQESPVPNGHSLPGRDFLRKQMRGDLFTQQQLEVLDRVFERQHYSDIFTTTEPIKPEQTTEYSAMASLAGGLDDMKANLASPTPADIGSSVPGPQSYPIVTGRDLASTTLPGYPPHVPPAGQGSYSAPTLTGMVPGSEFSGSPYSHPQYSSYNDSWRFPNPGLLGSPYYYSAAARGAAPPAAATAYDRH

| IHC staining intensity score (score on a scale of 0 to 6) [1] | IHC staining intensity score (score on a scale of 0 to 6) [2] | IHC staining intensity score (score on a scale of 0 to 6) [3] | IHC staining intensity score (score on a scale of 0 to 6) [4] | Substance |
| --- | --- | --- | --- | --- |
| 6 | 0 | 2 | 6 | monoclonal mouse B-Cell Specific Activator Protein (BSAP), clone DAK-Pax5 (antibody) |
| 2 | 0 | 1 | 2 | monoclonal mouse PAX 5, clone 24 (BD Biosciences) (antibody) |
